Data reported in patent US20210238298A1 (ALLIGATOR BIOSCIENCE, published 2021).

T1: OX40 chimera 1546: human OX40 with mouse domains 2A, 2B and module 3 (aa 66-126), on FreeStyle 293-F cells (human; mouse, UniProt P47741 62-124)
T1 construct: domain: 2A, 2B and module 3; Limits derived as for 1544
T1 sequence: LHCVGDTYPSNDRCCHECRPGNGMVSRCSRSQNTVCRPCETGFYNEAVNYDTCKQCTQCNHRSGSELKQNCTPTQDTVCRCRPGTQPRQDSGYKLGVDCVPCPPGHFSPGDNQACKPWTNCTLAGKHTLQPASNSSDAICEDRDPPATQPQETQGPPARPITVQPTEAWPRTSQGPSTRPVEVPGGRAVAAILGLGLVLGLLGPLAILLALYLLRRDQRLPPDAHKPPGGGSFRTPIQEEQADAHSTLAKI

T2: OX40 chimera 1544: human OX40 with mouse domains 1A, 1B and 2A (aa 30-81), on FreeStyle 293-F cells (human; mouse, UniProt P47741 26-77)
T2 construct: domain: 1A, 1B and 2A
T2 sequence: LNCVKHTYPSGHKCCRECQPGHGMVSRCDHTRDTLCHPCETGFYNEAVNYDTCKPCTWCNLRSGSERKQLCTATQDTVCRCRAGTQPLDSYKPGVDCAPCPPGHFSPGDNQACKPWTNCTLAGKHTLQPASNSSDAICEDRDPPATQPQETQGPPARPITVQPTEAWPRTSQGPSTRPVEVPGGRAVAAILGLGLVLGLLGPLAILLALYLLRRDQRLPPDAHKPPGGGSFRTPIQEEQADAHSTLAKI

T3: construct 84: full length OX40 sequence, on FreeStyle 293-F cells (human, UniProt P43489 29-277)
T3 sequence: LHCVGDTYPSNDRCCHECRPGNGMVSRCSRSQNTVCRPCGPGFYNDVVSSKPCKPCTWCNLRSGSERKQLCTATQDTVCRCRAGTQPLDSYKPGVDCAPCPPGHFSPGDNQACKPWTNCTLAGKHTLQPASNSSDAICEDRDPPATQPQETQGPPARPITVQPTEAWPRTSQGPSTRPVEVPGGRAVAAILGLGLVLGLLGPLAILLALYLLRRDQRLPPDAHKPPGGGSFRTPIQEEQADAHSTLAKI

T4: murine OX40 (murine, UniProt P47741 20-211, limits assumed)
T4 sequence (looked up): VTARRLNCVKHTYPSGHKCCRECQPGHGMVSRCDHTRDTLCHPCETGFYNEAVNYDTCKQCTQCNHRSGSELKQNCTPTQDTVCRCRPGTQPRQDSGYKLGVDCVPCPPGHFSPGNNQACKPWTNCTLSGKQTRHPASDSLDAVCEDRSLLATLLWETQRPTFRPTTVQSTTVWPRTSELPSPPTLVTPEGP

T5: Human OX40 (R&D systems, #3358_OX) (human, UniProt P43489 29-216)
T5 construct: Bought; Several catalogue numbers are given for it; also called human OX40 (R&D Systems, 3388-OX); OX40-Fc (R&D systems, #3358_OX); not shown: Fc part
T5 sequence: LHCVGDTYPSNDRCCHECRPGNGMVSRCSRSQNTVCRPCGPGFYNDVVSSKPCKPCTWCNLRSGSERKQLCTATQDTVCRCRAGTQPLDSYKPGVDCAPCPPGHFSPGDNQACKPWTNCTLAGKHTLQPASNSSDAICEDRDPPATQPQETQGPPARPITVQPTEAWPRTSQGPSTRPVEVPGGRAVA


Assays:
[1] = target: T1, OX40 chimera 1546: human OX40 with …; test: flow cytometry, 293-F transfectants
Method: (§1) The mouse/human chimeras were transiently transfected into FreeStyle 293-F cells (Invitrogen), incubated 48 hours in FreeStyle 293 expression medium (Invitrogen) 37 C, 8% CO₂, 135 rpm. The transfected cells were incubated with human OX40 antibodies, human OX40L (hOX40L, RnD Systems), mouse OX40L (mOX40L, RnD Systems) and controls for 30 min 4° C. and then detected with a-huIgG-PE (Jackson Immunoresearch) 30 min 4° C. Cells were analyzed with FACS Verse (BD Biosciences). Binding to the different chimeric constructs were calculated as relative (mean fluorescence intensity) MFI compared to the binding of the isotype control.

[2] = target: T2, OX40 chimera 1544: human OX40 with …; test: flow cytometry, 293-F transfectants
Method: as §1

[3] = target: T3, construct 84: full length OX40 …; test: flow cytometry, 293-F transfectants
Method: as §1

[4] = target: T6, recombinant human CD137-Fc (R&D #838-4B) (human, UniProt Q07011 24-186); test: ELISA
T6 construct: Bought; also called Human CD137 (R&D systems); CD137 (R&D Systems); not shown: Fc part, not described
T6 sequence (Q07011 24-186 limits assumed): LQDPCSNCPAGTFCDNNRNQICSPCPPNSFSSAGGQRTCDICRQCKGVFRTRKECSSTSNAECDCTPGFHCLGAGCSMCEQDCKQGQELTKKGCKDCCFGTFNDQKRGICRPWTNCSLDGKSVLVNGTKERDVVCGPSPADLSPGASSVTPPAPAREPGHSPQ

CD40 (Ancell) = target: T7, CD40 (Ancell) (UniProt P25942 21-193); test: ELISA
T7 construct: also called CD40-Fc (Ancell #504-820); not shown: Fc part, not described
T7 sequence (P25942 21-193 limits assumed): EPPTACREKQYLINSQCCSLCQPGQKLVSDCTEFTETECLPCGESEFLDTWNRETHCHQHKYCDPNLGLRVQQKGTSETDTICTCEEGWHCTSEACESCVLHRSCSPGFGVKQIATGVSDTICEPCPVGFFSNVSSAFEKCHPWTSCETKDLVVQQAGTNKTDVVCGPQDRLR

murine OX40 = target: T4, murine OX40; test: ELISA
[5] = target: T5, Human OX40 (R&D systems, #3358_OX); test: ELISA, coated human OX40
Method: ELISA plates were coated with human OX40 (R&D Systems, 3388-OX), CD40 (Ancell), or CD137 (R&D Systems) at 0.1 or 0.5 μg/ml. The ELISA plates were washed with PBST and then blocked with PBST+2% BSA for 1h at room temperature and then washed again with PBST. The antibodies were added in dilution series to the ELISA plates for 1 h at room temperature and then washed with PBST. Binding was detected using goat anti human kappa light chain HRP, incubated for 1h at room temperature. SuperSignal Pico Luminescent was used as substrate and luminescence was measured using Fluostar Optima.

[6] = target: T5, Human OX40 (R&D systems, #3358_OX); test: SPR (Biacore), immobilised human OX40
Method: Human OX40 (R&D systems, #3358_OX) was immobilized to the Biacore™ sensor chip, CM5, using conventional amine coupling. The tested antibodies and controls (serially diluted ⅓ or ½ 100-2 nM) were analyzed for binding in HBS-P (GE, #BR-1003-68) at a flow rate of […]. The association was followed for 3 minutes and the dissociation for 20 minutes. Regeneration was performed twice using 50 mM NaOH for 60 seconds. The kinetic parameters and the affinity constants were calculated using 1:1 Langmuir model with drifting baseline. […] The kinetic parameters and the affinity constants were calculated using BIAevaluation 4.1 software.

| relative MFI vs isotype control [1] | relative MFI vs isotype control [2] | relative MFI vs isotype control [3] | binding result [4] | binding result (CD40 (Ancell)) | binding result (murine OX40) | EC50 [5] [nM] | Kd [6] [nM] | koff [6] [s⁻¹] | kon [6] [M⁻¹ s⁻¹] | Binder |
| --- | --- | --- | --- | --- | --- | --- | --- | --- | --- | --- |
| 0.9 | 1.5 | 31.4 | no binding | no binding | no binding | < 1 | 0.811 | 0.00139 | 1.71e+06 | anti-OX40 antibody 1524/1525 (antibody, V domains shown, Tested as IgG) VH: EVQLLESGGGLVQPGGSLRLSCAASGFTFGSYYMGWVRQAPGKGLEWVSSIGSYYGYTYYADSVKGRFTISRDNSKNTLYLQMNSLRAEDTAVYYCARHDYGALDYWGQGTLVTVSS VL: DIQMTQSPSSLSASVGDRVTITCRASQSISSYLNWYQQKPGKAPKLLIYAASSLQSGVPSRFSGSGSGTDFTLTISSLQPEDFATYYCQQYGPSGLFTFGQGTKLEIK |
| 0.9 | 1.1 | 21.4 | no binding | no binding | no binding | < 1 | 0.43 | 0.000187 | 435000 | anti-OX40 antibody 1526/1527 (antibody, V domains shown, Tested as IgG) VH: EVQLLESGGGLVQPGGSLRLSCAASGFTFSGYSMYWVRQAPGKGLEWVSGIGYSGYGTYYADSVKGRFTISRDNSKNTLYLQMNSLRAEDTAVYYCARYYFHDYAAYSLDYWGQGTLVTVSS VL: DIQMTQSPSSLSASVGDRVTITCRASQSISSYLNWYQQKPGKAPKLLIYAASSLQSGVPSRFSGSGSGTDFTLTISSLQPEDFATYYCQQYGSDSLLTFGQGTKLEIK |
| 0.9 | 13.2 | 29.6 | no binding | no binding | no binding | < 1 | 0.327 | 0.000169 | 518000 | anti-OX40 antibody 1168/1135 (antibody, V domains shown, Tested as IgG) VH: EVQLLESGGGLVQPGGSLRLSCAASGFTFSGSSMSWVRQAPGKGLEWVSSISYYGGYTYYADSVKGRFTISRDNSKNTLYLQMNSLRAEDTAVYYCARYFPHYYFDYWGQGTLVTVSS VL: not shown |
| 0.9 | 7.1 | 29.4 | no binding | no binding | no binding | < 1 | 0.463 | 0.0001 | 216000 | anti-OX40 antibody 1542/1135 (antibody, V domains shown, Tested as IgG) VH: EVQLLESGGGLVQPGGSLRLSCAASGFTFGSSSMYWVRQAPGKGLEWVSGIGYYSYSTSYADSVKGRFTISRDNSKNTLYLQMNSLRAEDTAVYYCARGYPHHYFDYWGQGTLVTVSS VL: not shown |
| 0.9 | 14 | 27.5 | no binding | no binding | no binding | < 1 | 0.308 | 7.73e-05 | 251000 | anti-OX40 antibody 1164/1135 (antibody, V domains shown, Tested as IgG) VH: EVQLLESGGGLVQPGGSLRLSCAASGFTFYGSSMYWVRQAPGKGLEWVSGIYSSGGYTSYADSVKGRFTISRDNSKNTLYLQMNSLRAEDTAVYYCARGVPHGYFDYWGQGTLVTVSS VL: not shown |
| 0.9 | 8.4 | 24.9 | no binding | no binding | no binding | < 1 | 0.753 | 0.000584 | 776000 | anti-OX40 antibody 1482/1483 (antibody, V domains shown, Tested as IgG) VH: EVQLLESGGGLVQPGGSLRLSCAASGFTFSSYAMSWVRQAPGKGLEWVSYISYYSGYTYYADSVKGRFTISRDNSKNTLYLQMNSLRAEDTAVYYCARGYGYLDYWGQGTLVTVSS VL: DIQMTQSPSSLSASVGDRVTITCRASQSISSYLNWYQQKPGKAPKLLIYAASSLQSGVPSRFSGSGSGTDFTLTISSLQPEDFATYYCQQYGSLLTFGQGTKLEIK |
